Assay results reported in PMC3412936 (Journal of molecular biology, 2012).

T1: engineered WW1-WW2rw tandem domains of WWOX (human, UniProt Q9NZC7 16-91, E66R | Y85W)
T1 sequence (looked up): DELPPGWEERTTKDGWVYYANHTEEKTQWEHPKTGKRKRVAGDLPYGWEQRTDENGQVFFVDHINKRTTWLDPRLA

T2: WW1-WW2 tandem domains (residues 16-91) of human WWOX (human, UniProt Q9NZC7 16-91)
T2 sequence (looked up): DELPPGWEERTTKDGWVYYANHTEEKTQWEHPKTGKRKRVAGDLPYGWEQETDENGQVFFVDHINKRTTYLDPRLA

T3: WW1 domain (residues 16-50) of human WWOX (human, UniProt Q9NZC7 16-50)
T3 chain (looked up): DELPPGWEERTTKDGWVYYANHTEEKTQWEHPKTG


Assays:
Assay in all cases: ITC
[1] = target: T1, engineered WW1-WW2rw tandem domains of …
[2] = target: T2, WW1-WW2 tandem domains (residues 16-91) …
[3] = target: engineered WW2_RW domain of WWOX (E66R/Y85W double-mutant of WW2 domain) (human, UniProt Q9NZC7 57-91, E66R | Y85W)
[4] = target: T3, WW1 domain (residues 16-50) of human …

| Binder | Kd [1] | dH [1] | stoichiometry N [1] | Kd [2] | Kd [3] | dH [3] | Kd [4] | dH [2] | stoichiometry N [2] | dH [4] |
| --- | --- | --- | --- | --- | --- | --- | --- | --- | --- | --- |
| STFKPPAYEDVV [WBP1_PY1 peptide (12-mer spanning the PY1 PPXY motif of human WBP1)] | 103 µM | -8.66 kcal/mol | 1.07 | > 1000 µM | 80 µM | -5.59 kcal/mol | > 1000 µM | – | – | – |
| VQPPPPPYPGPM [WBP2_PY2 peptide (12-mer spanning the PY2 PPXY motif of human WBP2)] | 86 µM | -11.5 kcal/mol | 1.02 | 326 µM | 69 µM | -8.44 kcal/mol | > 1000 µM | -3.36 kcal/mol | 1.03 | – |
| PGTPPPPYTVAP [WBP1_PY2 peptide (12-mer spanning the PY2 PPXY motif of human WBP1)] | 101 µM | -10.1 kcal/mol | 2.02 | 132 µM | 123 µM | -12.1 kcal/mol | 366 µM | -9.85 kcal/mol | 0.99 | -16.1 kcal/mol |
